B1: 7B13 (antibody, V domains shown)
VH: QVQLVESGGGVVQPGGSLRLSCAASGFSFSNYGMHWVRQAPGKGLEWVALIPSDGNYQYYTDSVKGRFTVSRDNSRNTLYLQMKSLRAEDTARYHCAHLGGGLFDFWGQGTLVTVSS
VL: QSALNQPRSVSGSPGQSVSISCTGSSSDVGGYEFVSWYQHHPGKAPKLIIYDVDKRPSGVPDRFSGSRSGDTASLTISGLQAEDEADYYCYSSADTWVFGGGTKLTVL
B2: 7I13 (antibody, V domains shown)
VH: QVQLVESGGGVVQPGRSLRLSCAASGFTFSNYGMHWVRQGPGKGLEWVAVISYDASSKYYTDSVQGRFTISRDNSKNTLFLQMNSLRGEDTAVYYCAKALRYLDWFLSDPFDYWGQGTLVTVSS
VL: EIVLTQSPGTLSLSPGERATLSCRASQSVSSDFLAWYQQKPGQAPRLLIYGASSRATGIPDRFSGSGSGTDFTLTISRLEPEDFAVYYCQQYAASPPFGQGTRLEIK
B3: 4I22 (antibody, V domains shown)
VH: QVQLVESGGGVVQPGRSLRLSCVASGFTFSSYAMHWVRQAPGKGLEWVAVISYDGDNKFYADSVKGRFRISRDTSKNTLYLEMNSLRAADTAIYYCAREELVGLMPPYYNYGLDVWGQGTTVTVSS
VL: QSVLTQPPSVSAAPGQKVTISCSGSNSNIGNNYVSWYQQLPGRAPKLLIYDNDHRPSGIPDRFSGSKSGTSATLVITGLQTGDEADYYCETWDTSLSAAVVFGGGTKLTVL
B4: 4N10 (antibody, V domains shown)
VH: QVQLVQSGAEVKKPGSSVRVSCKASGGTFSSYVIIWVRQAPGQGLEWMGGVIPIFDTVNYAQKFQGRVTITADESTSTAYMELSSLKSEDTAVYYCARGILAYCGGDCYNTPYGMDVWGQGTTVTVSS
VL: DIQMTQSPSILSASVGDRVTITCRASQSISSWLAWYQQKPGKAPKLLIYKASSLEIGVPSRISGSGSGTEFTLTISSLQPDDFATYYCQQYNSSWTFGQGTKVEIK
B5: 15D8 (antibody, V domains shown)
VH: EVQLVQSGAEVKKPGESLKISCQASGYSFTNYWIAWVRQMPGKGLEWMGIIYPGDSDIKYSPSFRGQVTISADKSISNAFLQWRSLRASDTAMYYCARHAIRGDGFDYWGQGTLVTVSS
VL: SYELTQPPSVSVSPGQTATITCSGDKLGEKYACWYQQKPGQSPVLVMYQDTKRPSGIPERFSGSNSGNTATLTISGTRAMDEADYYCQAWDTNTVIFGGGTKLTVL
B6: 10P3 (antibody, V domains shown)
VH: EVQLVESGGGLVRPGGSLRLSCAASGFTFHNYRMNWVRQAPGKGLEWVANIKQDGSEKSYVDSVRGRFTTSRDNSKNSLYLQINSLRAEDTAVYYCARGEGYTYGVVYSYSAMDVWGQGTTVIVSS
VL: SYELTQPPSVSVSPGQTARITCSGNVLPNQYASWYQQKPGQAPVLVIYKDTERPSGIPGRFSGSSSGTTVTLTISGVQAEDEADYYCQSADSSGADYVFGTGTKVTVL
B7: 8I21 (antibody, V domains shown)
VH: LVELVESGGGVVQPGRSLRLSCAASGFTFSSDGMHWVRQSPGRGLEWVAFISSDGSTPYYADSVKGRFTISRDNSKNTLYLQMNSLRAEDTAMYFCAKDWALFRWLRTFDHWGQGTLVTVSS
VL: not shown
B8: 10F7 (antibody, V domains shown)
VH: EVQLVESGGGLVQPGRSLRLSCTASGFTFGDYAMSWFRQAPGKGLEWVGFIRSKAYGGTTEYAASVKGRFTISRDDSKSIAYLQMNSLKTEDTAVYYCTRASSLLWLLNPQPNFDYWGQGTLVTVSS
VL: SYVLTQPPSVSVAPGQTARITCGGNNIGSNNVHWYQQKPGQAPVLVVYDDSDRPSGIPERFSGSNSGNTATLTISRVEAGDEADYYCQVWDSSSDHPVFGGGTKLTVL
B9: 8J16 (antibody, V domains shown)
VH: QVQLQESGPGLVKPSETLSLTCSVSGGFTSSYYWSWIRQAPGKGLEWIGYVYYGESTDYNPSLKSRATISIDTSKNQFSLKLSSVTAADTAVYYCAREVDKRGFDYWGQGALVTVSS
VL: EIVLTQSPGTLSLSPGERATLSCRASQSVSGGYLAWYQQEPGQAPRLVIYGASSRATGIPDRFSASGSGTDFTLTITRLEPEDFAVYYCQQYGRTPLTFGGGTKVEIK
B10: 8C15 (antibody, V domains shown)
VH: QVQLQESGPGLVKPSETLSLTCTVSGGSIRSYYWSWIRQPPGKGLEWIGHIYYSGNTNYSPSLQSRVTISLDTPKNQFSLRLSSVTAADTAVYYCARHDVIVVRGVFDVWGQGTVVTVSS
VL: QSALTQPASVSGSPGQSITISCTGTSSDIGTYNLVSWYQQHPGKAPKVLIYDGSKRPSGVSSRFSASKSGNTASLTISGLQAEDETDYYCCSYAGTSDFFVVFGGGTKLTVL
B11: 8L13 (antibody, V domains shown)
VH: QVQLLESGGGVVQPGRSLRLSCAASGFTFSNYGMHWVRQAPGKGLEWVAVIWNDGSKKYYAESVKGRFTISRDNSKNTVYLQMNSLRAEDTAVYYCARDEGVQMVFAMPDYGMDVWGQGTTVTVSS
VL: SYELTQPPSVSVSPGQTASITCSGDKLGDKFACWYQQRPGQSPILVIYQDSKRPSGIPERFSGSNSGNTATLTIRGTQAMDEADYYCQAWDSSTAHYVFGTGTKVTVL

biological target: T1, hCMV gH + gL + UL128 + UL130 + UL131A (co-expressed in HEK293T cells) (human cytomegalovirus), P12824; experiment: competitor: 2C12-biotin; cell staining; settings: remark: other sources report otherwise

Going from B1 to B2, the Inhibition of binding (%) falls from 100% to 0%.

B3 and B4 are the same in Inhibition of binding (%): 0% for the first, 0% for the second.

B5 and B6 are the same in Inhibition of binding (%): 0% for the first, 0% for the second.

B7 and B8 are the same in Inhibition of binding (%): 0% for the first, 0% for the second.

B9 and B10 are the same in Inhibition of binding (%): 100% for the first, 100% for the second.

biological target: T1, hCMV gH + gL + UL128 + UL130 + UL131A …; experiment: competitor: 8C15-biotin; cell staining; settings: remark: other sources report otherwise

First: B1
Second: B2
The Inhibition of binding (%) of the first is higher: 100% for the first, 0% for the second.

B9 and B10 are the same in Inhibition of binding (%): 100% for the first, 100% for the second.

biological target: T1, hCMV gH + gL + UL128 + UL130 + UL131A …; experiment: competitor: 9I6-biotin; cell staining; settings: remark: other sources report otherwise

Going from B1 to B2, the Inhibition of binding (%) falls from 100% to 0%.

Going from B9 to B10, the Inhibition of binding (%) rises from 70% to 100%.

biological target: T1, hCMV gH + gL + UL128 + UL130 + UL131A …; experiment: competitor: 4N10-biotin; cell staining; settings: remark: other sources report otherwise

First: B3
Second: B4
The Inhibition of binding (%) of the first is lower: 0% for the first, 100% for the second.

Going from B5 to B7, the Inhibition of binding (%) rises from 0% to 90%.

In the case of B8, the Inhibition of binding (%) is reported as 0%.

biological target: T1, hCMV gH + gL + UL128 + UL130 + UL131A …; experiment: competitor: 15D8-biotin; cell staining; settings: remark: other sources report otherwise

First: B4
Second: B5
The Inhibition of binding (%) of the first is lower: 0% for the first, 100% for the second.

B6 and B7 are the same in Inhibition of binding (%): 0% for the first, 0% for the second.

Work on B8 yielded an Inhibition of binding (%) of 0%.

biological target: T1, hCMV gH + gL + UL128 + UL130 + UL131A …; experiment: competitor: 4I22-biotin; cell staining; settings: remark: other sources report otherwise

Going from B3 to B4, the Inhibition of binding (%) falls from 100% to 0%.

B5 and B6 are the same in Inhibition of binding (%): 0% for the first, 0% for the second.

Going from B7 to B8, the Inhibition of binding (%) rises from 0% to 100%.

B9 and B10 are the same in Inhibition of binding (%): 0% for the first, 0% for the second.

biological target: T1, hCMV gH + gL + UL128 + UL130 + UL131A …; experiment: competitor: 8I21-biotin; cell staining; settings: remark: other sources report otherwise

B1 and B2 are the same in Inhibition of binding (%): 0% for the first, 0% for the second.

First: B3
Second: B4
The Inhibition of binding (%) of the first is lower: 0% for the first, 90% for the second.

B5 and B6 are the same in Inhibition of binding (%): 0% for the first, 0% for the second.

Compared with B7, B8 is lower in Inhibition of binding (%): 100% for the first, 0% for the second.

B9 and B10 are the same in Inhibition of binding (%): 0% for the first, 0% for the second.

biological target: T1, hCMV gH + gL + UL128 + UL130 + UL131A …; experiment: competitor: 2F4-biotin; cell staining; settings: remark: other sources report otherwise

Going from B3 to B4, the Inhibition of binding (%) falls from 100% to 0%.

B5 and B6 are the same in Inhibition of binding (%): 0% for the first, 0% for the second.

Going from B7 to B8, the Inhibition of binding (%) rises from 0% to 100%.

Work on B9 yielded an Inhibition of binding (%) of 0%.

biological target: T1, hCMV gH + gL + UL128 + UL130 + UL131A …; experiment: competitor: 6G4-biotin; cell staining; settings: remark: other sources report otherwise

First: B1
Second: B2
The Inhibition of binding (%) of the first is higher: 100% for the first, 0% for the second.

B4 and B5 are the same in Inhibition of binding (%): 0% for the first, 0% for the second.

B6 and B7 are the same in Inhibition of binding (%): 0% for the first, 0% for the second.

Compared with B8, B9 is higher in Inhibition of binding (%): 0% for the first, 100% for the second.

Work on B10 yielded an Inhibition of binding (%) of 100%.

biological target: T1, hCMV gH + gL + UL128 + UL130 + UL131A …; experiment: competitor: 10F7-biotin; cell staining; settings: remark: other sources report otherwise

First: B3
Second: B4
The Inhibition of binding (%) of the first is higher: 100% for the first, 0% for the second.

Compared with B5, B11 is higher in Inhibition of binding (%): 0% for the first, 100% for the second.

B8 was tested, and the Inhibition of binding (%) was 100%.

biological target: T1, hCMV gH + gL + UL128 + UL130 + UL131A …; experiment: competitor: 5A2-biotin; cell staining; settings: remark: other sources report otherwise

Going from B3 to B4, the Inhibition of binding (%) rises from 0% to 100%.

Going from B5 to B7, the Inhibition of binding (%) rises from 0% to 95%.

In the case of B8, the Inhibition of binding (%) is reported as 0%.

biological target: T1, hCMV gH + gL + UL128 + UL130 + UL131A …; experiment: competitor: 1F11-biotin; cell staining; settings: remark: other sources report otherwise

Going from B2 to B3, the Inhibition of binding (%) rises from 0% to 100%.

B4 and B5 are the same in Inhibition of binding (%): 0% for the first, 0% for the second.

B6 and B7 are the same in Inhibition of binding (%): 0% for the first, 0% for the second.

B11 and B8 are the same in Inhibition of binding (%): 100% for the first, 100% for the second.

B9 was tested, and the Inhibition of binding (%) was 0%.

biological target: T1, hCMV gH + gL + UL128 + UL130 + UL131A …; experiment: competitor: 8J16-biotin; cell staining; settings: remark: other sources report otherwise

First: B1
Second: B2
The Inhibition of binding (%) of the first is higher: 100% for the first, 0% for the second.

Compared with B3, B9 is higher in Inhibition of binding (%): 0% for the first, 100% for the second.

Work on B10 yielded an Inhibition of binding (%) of 100%.

From US20170129940A1
